The target in experiment [1] is cynomolgus TIM-3 ECD fused C-terminally to human IgG1 Fc (made in-house, ExpiCHO) (cynomolgus monkey (Macaca fascicularis); human). As to the kind of experiment: SPR (IBIS MX96); TIM-3 ECD-Fc captured on anti-human IgG Fc sensor, Fab injected 1-100 nM; 1:1 Langmuir fit.
Experiment [2] deals with human TIM-3 ECD fused C-terminally to human IgG1 Fc (made in-house, ExpiCHO) (human) (UniProt Q8TDQ0). The experiment is described as above.
Experiment [3] has as its target R-PE-labeled human TIM-3-Fc chimera protein (R&D Systems) (human) (UniProt Q8TDQ0). Kind of experiment: flow cytometry competition; R-PE TIM-3-Fc preincubated with 3.125 µg/ml antibody, then apoptotic Jurkat cells showing phosphatidylserine. (In general: In flow cytometry, cells or beads pass a laser one at a time.)
The target is the same in experiment [4]. Kind of experiment: flow cytometry competition: R-PE-labelled TIM-3-Fc pre-mixed with titrated antibody, then binding to phosphatidylserine-positive apoptotic Jurkat cells (MFI); blocked ligand: phosphatidylserine; unit taken from the axis log(Concentration) µg/ml [continued) C].
For experiment [5] the target is unchanged. Kind of experiment: flow cytometry competition: R-PE-labelled TIM-3-Fc pre-mixed with titrated antibody, then binding to phosphatidylserine-positive apoptotic Jurkat cells; blocked ligand: phosphatidylserine [continued) C].
The target in experiment [6] is cynomolgus TIM-3 Fc fusion antigen (Sino Biologicals) (cynomolgus monkey (Macaca fascicularis)). As to the kind of experiment: ELISA; TIM-3 Fc fusion coated at 1 µg/ml, antibody titrated 2-fold from 1000 nM, HRP secondary. A general note: ELISA stands for enzyme-linked immunosorbent assay.
In experiment [7] the target is human TIM-3 Fc fusion antigen (Sino Biologicals) (human) (UniProt Q8TDQ0). The experiment is described as above.
The target in experiment [8] is cynomolgus TIM-3 Fc fusion antigen (Sino Biologicals) (cynomolgus monkey (Macaca fascicularis)). Kind of experiment: ELISA; EC50 on cynomolgus TIM-3 over EC50 on human TIM-3.

Sequence of cynomolgus TIM-3 ECD fused C-terminally to human IgG1 Fc (made in-house, ExpiCHO) (cynomolgus monkey (Macaca fascicularis); human) (chain, as listed by the source limits assumed): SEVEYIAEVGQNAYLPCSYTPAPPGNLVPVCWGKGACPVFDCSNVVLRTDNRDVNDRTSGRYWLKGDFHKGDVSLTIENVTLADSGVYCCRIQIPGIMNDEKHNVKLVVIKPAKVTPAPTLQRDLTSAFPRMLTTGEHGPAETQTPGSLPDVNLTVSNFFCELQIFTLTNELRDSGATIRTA

In general, Kd refers to the free concentration of one partner at which half of the binding sites on the other are occupied at equilibrium, for simple one-to-one binding. For the substance “Fab fragment of 18564 ABTIM3 (reference analogue)”, the dissociation constant (Kd) came to 25 nM in experiment [1] and 0.77 nM in experiment [2].

In general, IC50 refers to the concentration needed to halve the response being measured. With “reference anti-TIM-3 antibody 18571.18571 (humanized ABTIM3 analogue)”, the TIM-3-Fc binding to PtdS-positive cells left, % of the binding with non-blocking antibody 15338.15338 in experiment [3] is 3.2%. This substance also displayed a 50% inhibitory concentration (IC50) in experiment [4] of 0.782 µg/mL. In experiment [5], this substance had a TIM-3 binding (MFI) at 0.003 µg/ml antibody of 8700 MFI, a TIM-3 binding (MFI) at 0.012 µg/ml antibody of 8730 MFI, a TIM-3 binding (MFI) at 0.049 µg/ml antibody of 8890 MFI and a TIM-3 binding (MFI) at 0.195 µg/ml antibody of 8800 MFI. Also, in experiment [5], the TIM-3 binding (MFI) at 0.781 µg/ml antibody came to 4480 MFI, the TIM-3 binding (MFI) at 3.125 µg/ml antibody is 184 MFI, the TIM-3 binding (MFI) at 12.5 µg/ml antibody was determined as 160 MFI and the TIM-3 binding (MFI) at 50 µg/ml antibody turned out to be 157 MFI.

As usually defined, the EC50 is the concentration at which the effect is half-maximal. For the substance “reference antibody analogue 18564 ABTIM3”, the concentration giving a half-maximal response (EC50) in experiment [6] and in experiment [7] was 0.07 nM each time. Moreover, the Ratio Cynomolgus/Human EC50 in experiment [8] stood at 1.

The values are drawn from patent US20190276531A1.
